Test results taken from the DeepSol protein solubility set.

Assay: soluble on expression in E. coli; label from the status in PepcDB or PDB records

With “MLARCLAFSYPASTFLIFFLRRRLSHHLWHPTYPRVLNSVRPAFRLAPFVSQKDTDMTVEQPIQVDTLVVGAGQAGVAMSEHLSKLGVPHLVLERSRVAEAWRTGRWDSLVANGPAWHDRFPGMEFDVAADAFPAKDQVADYFEAYARKFNAPIRTGVEVRKVLRNVGRPGFTVETSEGLIQAQRVVAATGPFQRPVIPPIATANDRLTQIHSAEYRNPQQLPEGAVLVVGAGSSGVQIADELQRAGRRVYLSVGAHDRPPRSYRNRDFCWWLGVLGEWDAEIAKPGREHVTIAVSGARGGQTIDFRALAHQGITLVGLTKAFAGEHVTFQADLLDNLARGDENYLALLDAADAYIARNGLDLPLEPEARRRLPDPDCVKQPILELDLQQAGITSIIWATGYAVDFSWLQVDTFSEQGKPLHQRGVSREPGVYFLGLPWLSRRGSSFIWGVWHDAKHVADHIATQRKYQAYSDARPPAATAEAPALNLSPVGAHLEHHHHHH” as the sequence, how does the “soluble on expression in E. coli” value read?
Its value is “not soluble”.

With “MNPLKAGDIAPKFSLPDQDGEQVNLTDFQGQRVLVYFYPKAMTPGCTVQACGLRDNMDELKKAGVDVLGISTDKPEKLSRFAEKELLNFTLLSDEDHQVCEQFGVWGEKSFMGKTYDGIHRISFLIDADGKIEHVFDDFKTSNHHDVVLNWLKEHA” as the sequence, how does the “soluble on expression in E. coli” value read?
Its value is “soluble”.

With “MVGVMSNSSALSREFVKIEIGGKVIKGNSKVENSGDYFDGHCPQAFHAFSGIDGTVFDLINLKLRVTKHIQDLLENFFKRGEKEVKIEILRRESTKSGSAYSSFKVVYQGCRMHNMLLAHDNDSNLILELSFTPEESVSIEMNIPSDDGKSTEKLGPMTYNLYKEALV” as the sequence, how does the “soluble on expression in E. coli” value read?
Its value is “not soluble”.

For “MGGMTGMNNNAIKVVSVLAIGARERIALVEVGQQQILLGITPSTIRTLHVFDEPVVDAGNAGSSDFARKLQSMIGKSWSAPERKDLEHHHHHH”, which “soluble on expression in E. coli” value is on record?
The value was “not soluble”.

Which “soluble on expression in E. coli” value does the source give for “NPDGLSQEQLEHRERSLQTLRDIQRMLFPDEKEFTGAQSGGPQQNP” here?
The value was “soluble”.

Which “soluble on expression in E. coli” value does the source give for “MCFRTENGDFFGWEGVENTVGCGAGTCTHVWNYAQTVAFLFPELEQSMRRIEFLQETQADGYMPFRTYRPFGLPAWEMLPSADGQLGAVVRLYREWRLSGDNRLIEDCWDGVVRSMEYAIRTWDTDGDFVPDSAQHVTYDTELYGMTSMVSTLFFAALIAAAEMAEYMGDQERARRYRDGAEKGAKLMDEKCWNGEYYIQLIDDVDKYRYQYGKGCLSDQLLGQFLAQEAGLGYVLPKNHVKKAAESIFRYNFIERASDFGHVQRAYIFNDEMGLTPCTWPLGERPRFPFIYFGEVWTGIEYEVAALLIREDLLEEGLTIVKAVRDRQDGYRRNPWSENESGYYYTRAMASYSILNALSGFSCDQRKNQMSFQPKLNQDNFRCFWCNGKSWGIFSQKKEKGEIRQELQVLYGEKDVSVINLEHHHHHH” here?
Its value is “not soluble”.

With “MGSDKIHHHHHHMEFQCPLCRQRLHFHEESRGWHCDGKHHFDKKEIGYWDFYKGNKPRNAESRQELRARQFLVTSGLFQPAVEAMVKVLQTQDCGSERNCVNLGPGHAWIGKLLAQALSEHELPLKVFSPLESENEAFAAAKSGMEAVCLTPLKSLPFADASADMVWLLDIPAKGKEWQRILKPGGLLLMLAAGPRHLWQIKEFVYEGLTEKPFVLELSGQFDLISQTPVSWTHALSVADAKVLMGMAPWAWRVKEASLKAMEKGDFSGLEMDYRIILAKKRV” as the sequence, how does the “soluble on expression in E. coli” value read?
Its value is “not soluble”.

For “MLWWEEVEDSYEREDVQKKTFTKWVNAQFSKFGKQHIENLFSDLQDGRRLLDLLEGLTGQKLPKEKGSTRVHALNNVNKALRVLQNNNVDLVNIGSTDIVDGNHKLTLGLIWNIILHWQVKNVMKNIMAGLQQTNSEKILLSWVRQSTRNYPQVNVINFTTSWSDGLALNALIHSHRPDLFDWNSVVSQQSATQRLEHAFNIARYQLGIEKLLDPEDVDTTYPDKKSILMYITSLFQVLPQQVSIE”, which “soluble on expression in E. coli” value is on record?
Its value is “soluble”.

Which “soluble on expression in E. coli” value does the source give for “MSLANAIRRSIPKLNRALVLPAFRSFHDEFSSKIPLEDIRKQTKGKEQHVPSARSIAAKYQVFRDTDAPVILDVDEERQIHEAGLQQPEKIHDLPDMYSGINLSRGKTGVYEIEDLVTVLRLNSAINIFVCTVPKDIKYVDYMCIVTGRSVRHMRGMAEFVRKVFKMKRHPSDIIPKIEGESSSDWMALDLGNIALHIFSTKAREQYDLESLWSVGSEFDREYNKPSEELVQLFEKHTIYLDDLKPLKKEGHHHHHH” here?
Its value is “not soluble”.

For “MILDADYITEDGKPVIRVFKKEKGEFKIDYDRDFEPYIYALLKDDSAIEDIKKITAERHGTTVRVTRAERVKKKFLGRPVEVWKLYFTHPQDVPAIRDKIREHPAVVDIYEYDIPFAKRYLIDRGLIPMEGDEELRMLAFDIETLYHEGEEFGEGPILMISYADEEGARVITWKNIDLPYVESVSTEKEMIKRFLKVIQEKDPDVLITYNGDNFDFAYLKKRSEMLGVKFILGRDGSEPKIQRMGDRFAVEVKGRIHFDLYPVIRRTINLPTYTLETVYEPVFGQPKEKVYAEEIARAWESGEGLERVARYSMEDAKATYELGKEFFPMEAQLSRLVGQSLWDVSRSSTGNLVEWFLLRKAYERNDVAPNKPDERELARRTESYAGGYVKEPEKGLWENIVYLDYKSLYPSIIITHNVSPDTLNREGCREYDVAPQVGHRFCKDFPGFIPSLLGDLLEERQKVKKKMKATVDPIERKLLDYRQRAIKILANSYYGYYAYANARWYCRECAESVTAWGRQYIETTMREIEEKFGFKVLYADTDGFFATIPGADAETVKNKAKEFLNYINPRLPGLLELEYEGFYRRGFFVTKKKYAVIDEEDKITTRGLEIVRRDWSEIAKETQARVLEAILKHGDVEEAVRIVKEVTEKLSRHEVPPEKLVIYEQITRDLRSYRATGPHVAVAKRLAARGIKIRPGTVISYIVLKGPGRVGDRAIPFDEFDPAKHRYDAEYYIENQVLPAVERILRAFGYRKEDLRYQKTKQAGLGAWLKPKT”, which “soluble on expression in E. coli” value is on record?
The value was “soluble”.

For “MPLAVLERDGSFLGVLTPHSIVEVLLERERRLLEDARKINAEIRREADKAIEQLDIKAHYDTVTGLPNRQLFCDRLLQALAAHERDGNPVVLLFLDVDNFKSINDSLGHLVGDRLLRATAERIRTAVRDGDTVARIGGDEFTILLNGAKDTLNGALVAQKILDGLAQPFVFGAQQIVISVSIGIAVSPADGETMEQLLRNADTAMYHAKSRGKNNYQFFSPELNVQAYRRQEIERNLRCALLQGELGLRYAPRVDLRSGRIVALEVCPFWLSSELGDVPPDDFIPVAEETGLIVQIGIWAFRTACAHAAVWRTQGLADRCLSFRLSQRELDDPQFGDRIMSLLDGCGLEPENLQFELSERMLMTHAAHTLAVLQELSNRGIRFSVGDFGTGNASLRRLRRFPIDELKIDLSSVRDIEPDSDDAAVITAMIAMAKSLRMDVVAVGVETPEHVAFLLERGCRHGQGRLIGARLPPERIAALLAGDAVDLFVALEHHHHHH”, which “soluble on expression in E. coli” value is on record?
Its value is “not soluble”.

Which “soluble on expression in E. coli” value does the source give for “MADDLGLDLGKKKKSKKVIKIDGDDAPVETGVEAVEDGLGELNLGAKKKKKTPKTAGEEVVEEKVPTLEIGIGAQNLIDAKGAWPDYTYEEALTLVYQVMKDKNPDFAGDKKKFAIKLPEVARAGSKKTAFSNFLEICRLMKRQDKHVLQFLLAELGTTGSIDGSNCLIVKGRWQQKQFESVLRKYIKEYVMCHTCKSPETQLTKDTRLFFLQCTNCGSRCSVTAIKSGFKAVVGKRAAIRRAEEATAGK” here?
The value was “not soluble”.

With HMGKIYAAMMIMEYYRQSKAKK as the sequence, how does the “soluble on expression in E. coli” value read?
Its value is “soluble”.

With “MGSDKIHHHHHHMTKSLITGANGFVGSAVTRCLLEAGHEVRCLVRPGSDRRNLDKLPVEISEGDLRSASSLKRAVAGCDNLFHVAADYRLWVPNPDTMYEINVKGTRALVLAAAEAGMKRMVYTSSVATLGTAENGVPADEDTPSSLGSMCGHYKRSKFMAEEIVQQMTREHDLPMVIVNPSTPIGPRDIKPTPTGRLVVDTLRNRMPAYVNTGLNIVHADDIAEGHLLAYKHGKPGERYILGGENMTLLQILQKIDEIRGRRIRRLGLPVKLMVPAAWLMEKMSTVTKVEPRATVDSVSMAKKKMFYSSDKAVRELGYRYRPAAAALEDAMNWFQANGYCG” as the sequence, how does the “soluble on expression in E. coli” value read?
Its value is “not soluble”.

Which “soluble on expression in E. coli” value does the source give for “MTAYGHMPGEAIECLSIAVELHKQEVIDAHGQVTIRVGFKIGGGIDQDPTKAPFKYPDSGVYITNVESGSPADVAGLRKHDKILQVNGADFTMMTHDRAVKFIKQSKVLHMLVARADLPPVSLH” here?
Its value is “not soluble”.

Which “soluble on expression in E. coli” value does the source give for “MIRLAPLITADVDTTTLPGGKASDAAQDFLALLSEALAGETTTDKAAPQLLVATDKPTAKGEPLVSDILSDAQQADLLIPVDETPPVINDEQSTLTPLTTAQTMTLAAVADKNTTKDEKADDLNEDVTASLSALFAMLPGFDNTPKVTDAPSTVLPAEKPTLFTKLTSAQLTTAQPDDAPGTPAQPLTPLVAEAQSKAEVISTPSPVTADASPLITPHQTQPLPTVAAPVLSAPLGSHEWQQSLSQHISLFTRQGQQSAELRLHPQDLGEVQISLKVDDNQAQIQMISPHQHVRAALEAALPVLRTQLAESGIQLGQSNISGESFSGQQQAASQQQQSQRTANHEPLAGEDDDTLPVPVSLQGRVTGNSGVDIFA” here?
Its value is “soluble”.

With “MELRVGNRYRLGRKIGSGSFGDIYLGTDIAAGEEVAIKLECVKTKHPQLHIESKIYKMMQGGVGIPTIRWCGAEGDYNVMVMELLGPSLEDLFNFCSRKFSLKTVLLLADQMISRIEYIHSKNFIHRDVKPDNFLMGLGKKGNLVYIIDFGLAKKYRDARTHQHIPYRENKNLTGTARYASINTHLGIEQSRRDDLESLGYVLMYFNLGSLPWQGLKAATKRQKYERISEKKMSTPIEVLCKGYPSEFATYLNFCRSLRFDDKPDYSYLRQLFRNLFHRQGFSYDYVFDWNMLKFGASRAADDAERERRDREERLRH” as the sequence, how does the “soluble on expression in E. coli” value read?
Its value is “soluble”.

For “MRFSIVSLLHRLFLAGALALAAGAQAAPDPMGPPDKFVLDAATQTIDILKSDQNVKAGNLAHINQVVDAHILPFVNFQKTTRLAAGRYWRQATDTQKAELAKAFRGTLVRTYSGALTKVDNGTTIKLLPFRGDPNADDVVVRSLISQSNSQPVQVDYRLEKTPQGWRIYDMNVEGIWLIENYRNQFAQQINQNGIDGLIQALNQRNQAAALEHHHHHH”, which “soluble on expression in E. coli” value is on record?
Its value is “soluble”.

Which “soluble on expression in E. coli” value does the source give for “MSTDSTNYAAKHESLGKSVQRELQKTQSQLRQVVRKMQSKYNINNKARVAEISLLRQMQSQFSRKYVNKNLGNSNTLAQQGSYTKKDGTTAQAGDLLLAADNLHSRLTDKMLSISHVRENTISPFVLGCLKQITINAYHYLK” here?
The value was “not soluble”.

For “YIYRLGKEKEKNDRLIQSITINQMEARQNEEIINSTHSLRVFKHDIMNHMSILYKLVENGKNSDALKYIYQINNSIERTSYTISTGIIPIDCIMTAKLSKALDNNISIKHQIHFPANYNISDMDLCSLISNLLDNAIEANCKLDMTKRRLQIEIKPYNNMLLLFISNSSNGIYLYGGNGNLLTTKTSNKNEHGIGIKRINEIVKKYNGIIEFDPGTEIFSVSILFPLDN”, which “soluble on expression in E. coli” value is on record?
Its value is “not soluble”.

With “MSLNIAKGEPVKITTIDVGNKSFPVKITFIDRKGVSYYIDVAMSRTNSGMEPADFQAEKRINYFPNAFSFTNPDVKTRESIQSKYIGQSVYPQKTIRVKQTELLRYTPLHIKDVQPEKAGTSATLLLTDIQGNTYQVKVDLKYDPILKNEDFIEDLFGFSDIRKKYPNISESNWLMLAKGEVKPGMTTEECKLAIGEPIEIRVRTDTRFETWLYRGKILEFENGILLRAKEGHHHHHH” as the sequence, how does the “soluble on expression in E. coli” value read?
Its value is “soluble”.

With “DLLSWFKGNDRPPAPAGKALEFSKPAAWQNNLPLTPADKVSGYNNFYEFGLDKADPAANAGSLKTDPWTLKISGEVAKPLTLDHDDLTRRFPLEERIYRMRCVEAWSMVVPWIGFPLHKLLALAEPTSNAKYVAFETIYAPEQMPGQQDRFIGGGLKYPYVEGLRLDEAMHPLTLMTVGVYGKALPPQNGAPVRLIVPWKYGFKGIKSIVSIKLTRERPPTTWNLAAPDEYGFYANVNPYVDHPRWSQATERFIGSGGILDVQRQPTLLFNGYADQVASLYRGLDLRENFLEHHHHHH” as the sequence, how does the “soluble on expression in E. coli” value read?
Its value is “soluble”.
